Test results taken from patent publication US8735097B2, “Human antibiotic proteins” (Planton GmbH, priority 1999, dated 2014).
Where no end group is shown, it is not given here.

Columns and labels:
Staph aureus = test: MIC, antimicrobial activity against Staph aureus; format: cell-based, Staphylococcus aureus
Source text: (§1) The following microorganisms were used for the tests: • Escherichia coli (E. coli)—ATCC (American Type Culture Collection) No. 11303 • Pseudomonas aeruginosa—ATCC No. 15442 • Staphylococcus aureus (clinical isolates from the dermatological hospital of Kiel) • Staphylococcus epidermidis (clinical isolates from the dermatological hospital of Kiel) • Candida albicans (clinical isolates from the dermatological hospital of Kiel)
(§2) The microorganisms were cultivated on Trypticase-soy-broth (TSB) agar plates at 37° C. If they were not needed for a long time, they were stored at 4° C. For the tests, in each case a single colony of the corresponding microorganisms was inoculated in 40 ml of TSB medium and incubated overnight at 37° C. while being shaken (250 rpm). To quantify the microorganisms, the optical density of the overnight cultures was measured at 620 nm (OD620), and the colony number was determined by flattening out corresponding dilution stages.
(§3) To be able to assess the dose-dependent range of action of an antimicrobial or antibiotic protein, a liquid culture testing system was used (cf. Ganz et al., 1985). […]
(§4) These batches were incubated in a 96-hole plate (Becton Dickinson, Heidelberg) for 3 hours at 37° C. while being shaken lightly (150 rpm). […] After 24 to 36 hours of growth, the colonies were counted out.

E. coli [1] = test: MIC, antimicrobial activity against E. coli; format: cell-based, Escherichia coli
Source text: as §1, §2, §3, §4

E. coli [2] = test: Liquid culture test, LD90 by counting colony-forming units, E. coli; format: cell-based, Escherichia coli; details: 3 hours at 37° C., 5·10^4 KBE/ml, 10 mmol sodium phosphate buffer pH 7.4 with 1% TSB
Method: (§5) To be able to assess the dose-dependent range of action of an antimicrobial or antibiotic protein, a liquid culture testing system was used (cf. Ganz et al., 1985).
(§6) About 10 μl of a 1×10^7/ml dilution of the corresponding microorganisms in sodium-phosphate buffer (cf. 3.1) was added to 80 μl of sodium-phosphate buffer together with 1.25% TSB medium (v/v). 10 μl of 0.01% acetic acid was added with the corresponding concentrations of the antimicrobial or antibiotic protein (100 μg/ml, 50 μg/ml, 25 μg/ml, 12.5 μg/ml, and 6.25 μg/ml).
(§7) These batches were incubated in a 96-hole plate (Becton Dickinson, Heidelberg) for 3 hours at 37° C. while being shaken lightly (150 rpm). After the incubation time, tenfold dilution series were made from 50 μl of each of the batches with sodium-phosphate buffer and flattened out (100 μl) in each case in 3 parallel lines on TSB-agar plates. After 24 to 36 hours of growth, the colonies were counted out.
(§8) SAP-3 was incubated at the indicated concentrations at 37° C. for 3 hours with 5·10^4 KBE/ml (KBE=colony-forming units) of E. coli and Staphylococcus aureus in 100 μl of 10 mmol of sodium phosphate buffer (pH=7.4) together with 1% TSB (TSB=trypticase-soy broth). The antimicrobial activity of SAP-3 was determined by counting out the KBE on the subsequent day. 100 μl of the respective batches in tenfold dilution stages was flattened out on TSB plates in advance. […]

Staphylococcus aureus [3] = test: Liquid culture test, LD90 by counting colony-forming units, Staphylococcus aureus; format: cell-based; details: 3 hours at 37° C., 10 mmol sodium phosphate buffer pH 7.4 with 1% TSB
Method: as §5, §6, §4
as §8, with “day.” for “day. 100 μl of the respective batches in tenfold dilution stages was flattened out on TSB plates in advance.”
SAP-2 was incubated at the indicated concentrations at 37° C. for 3 hours with 1·10^5 KBE/ml of the respective microorganisms in 100 μl of 10 mmol of sodium phosphate buffer (pH=7.4) together with 1% TSB. The antimicrobial activity of SAP-2 was determined by counting out the KBE on the subsequent day. […]

gram-negative bacteria = details: cited from earlier work
gram-positive bacteria = details: cited from earlier work
human RNA = test: RNase activity; format: biochemical; details: 1.2 μg of SAP-2, one hour at 37° C.
Method: RNase activity: 1.2 μg of SAP-2 digested about 5 μg of human RNA in one hour at 37° C.

propionibacterium acnes = test: Liquid culture test, LD90 by counting colony-forming units, propionibacterium acnes; format: cell-based; details: 3 hours at 37° C., 1·10^5 KBE/ml, 10 mmol sodium phosphate buffer pH 7.4 with 1% TSB
Method: as §5, §6, §7
(§9) SAP-2 was incubated at the indicated concentrations at 37° C. for 3 hours with 1·10^5 KBE/ml of the respective microorganisms in 100 μl of 10 mmol of sodium phosphate buffer (pH=7.4) together with 1% TSB. The antimicrobial activity of SAP-2 was determined by counting out the KBE on the subsequent day. 100 μl of the respective batches was flattened out in tenfold dilution stages on TSB plates in advance. Then, the plates were incubated at 37° C. overnight.

Pseudomonas aeruginosa [4] = test: Liquid culture test, LD90 by counting colony-forming units, Pseudomonas aeruginosa; format: cell-based; details: 3 hours at 37° C., 1·10^5 KBE/ml, 10 mmol sodium phosphate buffer pH 7.4 with 1% TSB
Method: as §5, §6, §7, §9

Candida albicans [5] = test: Liquid culture test, LD90 by counting colony-forming units, Candida albicans; format: cell-based; details: 3 hours at 37° C., 1·10^5 KBE/ml, 10 mmol sodium phosphate buffer pH 7.4 with 1% TSB
Method: as §5, §6, §7, §9

E. coli [6] = details: cited from earlier work
Klebsiella pneumoniae = details: cited from earlier work
Staphylococcus aureus [7] = details: cited from earlier work
Pseudomonas aeruginosa [8] = details: cited from earlier work
Candida albicans [9] = details: cited from earlier work

SAP-3: human antibiotic protein of about 6 kDa isolated from lesional psoriasis scales, SEQ ID NO: 2, to be renamed hBD-3 (GIINTLQKYYCRVRGGRCAVLSCLPKEEQIGKCSTRGRKCCRRKK; listed as Homo sapiens)
MIC, antimicrobial activity against Staph aureus (Staph aureus): <100 µg/mL
MIC, antimicrobial activity against E. coli (E. coli [1]): <20 µg/mL
LD90 for E. coli (E. coli [2]): 2.5 to 5 µg/mL
LD90 for Staphylococcus aureus (Staphylococcus aureus [3]; 5·10^4 KBE/ml): 2.5 to 5 µg/mL

hBD-2: second β-defensin isolated in humans, 41 amino acids, inducible peptide (GIGDPVTCLKSGAICHPVFCPRRYKQIGTCGLPGTKCCKKP; ends and bridges not checked; cysteine pairing not given here; UniProt O15263 24-64, looked up)
LD90 against gram-negative bacteria (gram-negative bacteria): 10 µg/mL
LD90 against gram-positive bacteria (gram-positive bacteria): exceeds 100 μg/ml

B1: SAP-2: human antibiotic protein of about 20 kDa isolated from lesional psoriasis scales, SEQ ID NO: 1, to be renamed RNase 7 (protein, listed as Homo sapiens)
chain: KPKGMTSSQWFKIQHMQPSPQACNSAMKNINKHTKRCKDLNTFLHEPFSSVAATCQTPKIACKNGDKNCHQSHGPVSLTMCKLTSGKYPNCRYKEKRQNKSYVVACKPPQKKDSQQFHLVPVHLDRVL
MIC, antimicrobial activity against Staph aureus (Staph aureus): < 100 µg/mL
MIC, antimicrobial activity against E. coli (E. coli [1]): < 50 µg/mL
RNase activity: human RNA digested (human RNA): about 5 μg
LD90 for Staphylococcus aureus (Staphylococcus aureus [3]; 1·10^5 KBE/ml): 7.5 to 15 µg/mL
LD90 for propionibacterium acnes (propionibacterium acnes): 4 to 7.5 µg/mL
LD90 for Pseudomonas aeruginosa (Pseudomonas aeruginosa [4]): 7.5 to 15 µg/mL
LD90 for Candida albicans (Candida albicans [5]): 15 to 30 µg/mL

B2: TAP: first known epithelial β-defensin, which protects the trachea of bovines, 64 amino acids (protein, UniProt P25068 1-64, looked up)
chain: MRLHHLLLALLFLVLSAWSGFTQGVGNPVSCVRNKGICVPIRCPGSMKQIGTCVGRAVKCCRKK
modifications: ends and bridges not checked
notes: first known epithelial β-defensin, which protects the trachea of bovines, 64 amino acids
minimum inhibition concentration against E. coli (E. coli [6]): 12 to 50 µg/mL
minimum inhibition concentration against Klebsiella pneumoniae (Klebsiella pneumoniae): 12 to 50 µg/mL
minimum inhibition concentration against Staphylococcus aureus (Staphylococcus aureus [7]): 12 to 50 µg/mL
minimum inhibition concentration against Pseudomonas aeruginosa (Pseudomonas aeruginosa [8]): 12 to 50 µg/mL
action on Candida albicans (Candida albicans [9]): destroyed
